Reference: the Human Domainome abundance scans (Beltran et al. 2025)
± gives the uncertainty stated by the source.

B1: LIM and senescent cell antigen-like-containing domain protein 2, residues 13 to 71; numbered along this chain, Q7Z4I7 (parent)
chain: AVCQRCQARFSPAERIVNSNGELYHEHCFVCAQCFRPFPEGLFYEFEGRKYCEHDFQML

Variants of: B1
Assay: abundance fitness (aPCA) (normalised: wild type 0, dead -1); higher = more abundant; growth selection in yeast, the domain comes from the species named
Conditions: Homo sapiens

| Variant | abundance fitness |
| --- | --- |
| AVCQRCQARFSPAERIVNSNGEFYHEHCFVCAQCFRPFPEGLFYEFEGRKYCEHDFQML [L23F] | -0.082 ± 0.1 |
| AVCQRCQARFSPAERIVNSNGEIYHEHCFVCAQCFRPFPEGLFYEFEGRKYCEHDFQML [L23I] | 0.078 ± 0.12 |
| AVCQRCQARFSPAERIVNSNGEEYHEHCFVCAQCFRPFPEGLFYEFEGRKYCEHDFQML [L23E] | -0.18 ± 0.065 |
| AVCQRCQARFSPAERIVNSNGEDYHEHCFVCAQCFRPFPEGLFYEFEGRKYCEHDFQML [L23D] | -0.106 ± 0.12 |
| AVCQRCQARFSPAERIVNSNGEGYHEHCFVCAQCFRPFPEGLFYEFEGRKYCEHDFQML [L23G] | -0.2 ± 0.052 |
| AVCQRCQARFSPAERIVNSNGEAYHEHCFVCAQCFRPFPEGLFYEFEGRKYCEHDFQML [L23A] | 0.001 ± 0.052 |
| AVCQRCQARFSPAERIVNSNGENYHEHCFVCAQCFRPFPEGLFYEFEGRKYCEHDFQML [L23N] | -0.076 ± 0.11 |
| AVCQRCQARFSPAERIVNSNGEKYHEHCFVCAQCFRPFPEGLFYEFEGRKYCEHDFQML [L23K] | -0.013 ± 0.055 |
| AVCQRCQARFSPAERIVNSNGECYHEHCFVCAQCFRPFPEGLFYEFEGRKYCEHDFQML [L23C] | -0.185 ± 0.091 |
| AVCQRCQARFSPAERIVNSNGEHYHEHCFVCAQCFRPFPEGLFYEFEGRKYCEHDFQML [L23H] | 0.238 ± 0.088 |
| AVCQRCQARFSPAERIVNSNGEPYHEHCFVCAQCFRPFPEGLFYEFEGRKYCEHDFQML [L23P] | 0.027 ± 0.054 |
| AVCQRCQARFSPAERIVNSNGEMYHEHCFVCAQCFRPFPEGLFYEFEGRKYCEHDFQML [L23M] | 0.067 ± 0.051 |
| AVCQRCQARFSPAERIVNSNYELYHEHCFVCAQCFRPFPEGLFYEFEGRKYCEHDFQML [G21Y] | -0.518 ± 0.14 |
| AVCQRCQARFSPAERIVNSNFELYHEHCFVCAQCFRPFPEGLFYEFEGRKYCEHDFQML [G21F] | -0.4 ± 0.097 |
| AVCQRCQARFSPAERIVNSNDELYHEHCFVCAQCFRPFPEGLFYEFEGRKYCEHDFQML [G21D] | -0.324 ± 0.12 |
| AVCQRCQARFSPAERIVNSNIELYHEHCFVCAQCFRPFPEGLFYEFEGRKYCEHDFQML [G21I] | -0.947 ± 0.36 |
| AVCQRCQARFSPAERIVNSNRELYHEHCFVCAQCFRPFPEGLFYEFEGRKYCEHDFQML [G21R] | -0.332 ± 0.073 |
| AVCQRCQARFSPAERIVNSNLELYHEHCFVCAQCFRPFPEGLFYEFEGRKYCEHDFQML [G21L] | -0.17 ± 0.06 |
| AVCQRCQARFSPAERIVNSNAELYHEHCFVCAQCFRPFPEGLFYEFEGRKYCEHDFQML [G21A] | -0.045 ± 0.066 |
| AVCQRCQARFSPAERIVNSNNELYHEHCFVCAQCFRPFPEGLFYEFEGRKYCEHDFQML [G21N] | -0.063 ± 0.11 |
| AVCQRCQARFSPAERIVNSNCELYHEHCFVCAQCFRPFPEGLFYEFEGRKYCEHDFQML [G21C] | -0.435 ± 0.13 |
| AVCQRCQARFSPAERIVNSNKELYHEHCFVCAQCFRPFPEGLFYEFEGRKYCEHDFQML [G21K] | -0.016 ± 0.12 |
| AVCQRCQARFSPAERIVNSNQELYHEHCFVCAQCFRPFPEGLFYEFEGRKYCEHDFQML [G21Q] | -0.2 ± 0.11 |

| Variant | abundance fitness |
| --- | --- |
| AVCQRCQARFSPAERIVNSNPELYHEHCFVCAQCFRPFPEGLFYEFEGRKYCEHDFQML [G21P] | -0.457 ± 0.11 |
| AVCQRCQARFSPAERIVNSNWELYHEHCFVCAQCFRPFPEGLFYEFEGRKYCEHDFQML [G21W] | -0.752 ± 0.2 |
| AVCQRCQARFSPAERIVNSNMELYHEHCFVCAQCFRPFPEGLFYEFEGRKYCEHDFQML [G21M] | -0.328 ± 0.11 |
| AVCQRCQARFSPAERIVNSNHELYHEHCFVCAQCFRPFPEGLFYEFEGRKYCEHDFQML [G21H] | -0.178 ± 0.087 |
| AVCQRCQARFSPAERIVNSNVELYHEHCFVCAQCFRPFPEGLFYEFEGRKYCEHDFQML [G21V] | -0.45 ± 0.071 |
| AVCQRCQARFSPAERIVNSNEELYHEHCFVCAQCFRPFPEGLFYEFEGRKYCEHDFQML [G21E] | 0.053 ± 0.13 |
| AVCQRCQARFSPAERIVNSNSELYHEHCFVCAQCFRPFPEGLFYEFEGRKYCEHDFQML [G21S] | -0.054 ± 0.063 |
| AVCQRCQARFSPAERIVNANGELYHEHCFVCAQCFRPFPEGLFYEFEGRKYCEHDFQML [S19A] | -0.106 ± 0.073 |
| AVCQRCQARFSPAERIVNRNGELYHEHCFVCAQCFRPFPEGLFYEFEGRKYCEHDFQML [S19R] | 0.113 ± 0.063 |
| AVCQRCQARFSPAERIVNFNGELYHEHCFVCAQCFRPFPEGLFYEFEGRKYCEHDFQML [S19F] | -0.22 ± 0.13 |
| AVCQRCQARFSPAERIVNENGELYHEHCFVCAQCFRPFPEGLFYEFEGRKYCEHDFQML [S19E] | -0.015 ± 0.097 |
| AVCQRCQARFSPAERIVNVNGELYHEHCFVCAQCFRPFPEGLFYEFEGRKYCEHDFQML [S19V] | -0.187 ± 0.074 |
| AVCQRCQARFSPAERIVNHNGELYHEHCFVCAQCFRPFPEGLFYEFEGRKYCEHDFQML [S19H] | -0.19 ± 0.12 |
| AVCQRCQARFSPAERIVNCNGELYHEHCFVCAQCFRPFPEGLFYEFEGRKYCEHDFQML [S19C] | -0.117 ± 0.096 |
| AVCQRCQARFSPAERIVNKNGELYHEHCFVCAQCFRPFPEGLFYEFEGRKYCEHDFQML [S19K] | -0.189 ± 0.12 |
| AVCQRCQARFSPAERIVNYNGELYHEHCFVCAQCFRPFPEGLFYEFEGRKYCEHDFQML [S19Y] | -0.455 ± 0.15 |
| AVCQRCQARFSPAERIVNGNGELYHEHCFVCAQCFRPFPEGLFYEFEGRKYCEHDFQML [S19G] | 0.015 ± 0.07 |
| AVCQRCQARFSPAERIVNTNGELYHEHCFVCAQCFRPFPEGLFYEFEGRKYCEHDFQML [S19T] | -0.064 ± 0.076 |
| AVCQRCQARFSPAERIVNDNGELYHEHCFVCAQCFRPFPEGLFYEFEGRKYCEHDFQML [S19D] | 0.058 ± 0.11 |
| AVCQRCQARFSPAERIVNPNGELYHEHCFVCAQCFRPFPEGLFYEFEGRKYCEHDFQML [S19P] | -0.29 ± 0.12 |
| AVCQRCQARFSPAERIVNINGELYHEHCFVCAQCFRPFPEGLFYEFEGRKYCEHDFQML [S19I] | -0.151 ± 0.1 |
| AVCQRCQARFSPAERIVNWNGELYHEHCFVCAQCFRPFPEGLFYEFEGRKYCEHDFQML [S19W] | -0.16 ± 0.085 |
